Results from patent publication US12697371B2, “Method for preventing, treating or delaying myocardial damage using neuregulin and composition” (ZENSUN (SHANGHAI) SCIENCE & TECHNOLOGY, CO., LTD., priority 2019, dated 2026).

Tested on: rats with acute myocardial infarction caused by left coronary artery ligation
Test: Echocardiography, rat acute myocardial infarction, long-term subcutaneous NRG followed by withdrawal through frequency reduction (Example 3)
Assay type: in vivo, Wistar rats
Description: Established in the same way as the rat model of heart failure caused by coronary artery ligation in 5.1, Embodiment 1
The rats were randomly divided into groups and medicated upon coronary artery ligation. According to post-ligation survival, the rats were randomly divided into two groups, including the excipient group and the NRG30 μg/kg group. There were 19 rats in the excipient group and there were 18 rats in the NRG group. Continuous administration of medicine started on the day following the modeling, with subcutaneous administration for 3 times a day, at a dose of 10 μg/kg. Echocardiography was performed on day 14 after modeling. All the animals were medicated continuously until day 38, and the animals in the NRG group were examined by echocardiography. The animals in the NRG group were averagely divided into two subgroups, with the animals in one subgroup continuing to be medicated while the animals in the other subgroup stopped taking medicine at an early stage. The excipient group continued to be medicated. For the continuous NRG administration subgroup, a 3-week withdrawal plan was implemented on day 49: medicated every other day in the first week; medicated every three days in the second week; subcutaneously injected with NRG every four days in the third week. In terms of administration method, the rats were subcutaneously injected with NRG 3 times a day, exactly the same as above. For the NRG withdrawal subgroup, the clinical symptoms of the rats were observed. All the animals underwent echocardiography every week for monitoring of the changes in the cardiac function.
After being anesthetized with 4% isoflurane, the rats were fixed onto the operating board in the left lateral recumbent position. The head of the rats was fixed in the breathing mask of the gaseous anesthesia machine, with isoflurane used for maintenance of anesthesia. After chest hair removal, the skin was disinfected with 75% alcohol and coated with a coupling agent. An echocardiography probe was used to detect any echo signal from the left ventricle of the rats. The left ventricular end-diastolic diameter and left ventricular end-systolic diameter (D) were measured. The left ventricular end-diastolic volume (EDV) and end-systolic volume (ESV) were calculated. Also, the ejection fraction (EF) value was found, EF=(EDV−ESV)/EDV*100%.
All experimental data were expressed in ±SD. GraphPad Prism6 was used for one-way ANOVA analysis. P<0.05 indicates a significant inter-group difference; P<0.01 indicates an extremely significant inter-group difference.

[1] = DAY 14, 30 μg/kg sc (10 μg/kg 3 times a day), continuous
[2] = DAY 21, 30 μg/kg sc (10 μg/kg 3 times a day), continuous
[3] = DAY 28, 30 μg/kg sc (10 μg/kg 3 times a day), continuous
[4] = DAY 35, 30 μg/kg sc (10 μg/kg 3 times a day), continuous
[5] = DAY 38, Administration subgroup, 30 μg/kg sc continued
[6] = DAY 38, Withdrawal subgroup, 30 μg/kg sc until day 38, then stopped
[7] = DAY 42, Administration subgroup, 30 μg/kg sc continued
[8] = DAY 42, Withdrawal subgroup, 30 μg/kg sc until day 38, then stopped
[9] = DAY 49, Administration subgroup, 30 μg/kg sc continued
[10] = DAY 49, Withdrawal subgroup, 30 μg/kg sc until day 38, then stopped
[11] = DAY 56, Administration subgroup, 30 μg/kg sc, 3-week gradual withdrawal by frequency reduction from day 49
[12] = DAY 56, Withdrawal subgroup, 30 μg/kg sc until day 38, then stopped
[13] = DAY 63, Administration subgroup, 30 μg/kg sc, 3-week gradual withdrawal by frequency reduction from day 49
[14] = DAY 63, Withdrawal subgroup, 30 μg/kg sc until day 38, then stopped
[15] = DAY 68, Administration subgroup, 30 μg/kg sc, 3-week gradual withdrawal by frequency reduction from day 49
[16] = DAY 68, Withdrawal subgroup, 30 μg/kg sc until day 38, then stopped
[17] = DAY 74, Administration subgroup, 30 μg/kg sc, 3-week gradual withdrawal by frequency reduction from day 49
[18] = DAY 74, Withdrawal subgroup, 30 μg/kg sc until day 38, then stopped

B1: NRG: fragment of the NRG-1β2 isomer, 177-237 amino acid fragment containing an EGF-like domain (SEQ ID NO: 1); developed by Zensun (protein, listed as Homo sapiens)
chain: SHLVKCAEKEKTFCVNGGECFMVKDLSNPSRYLCKCPNEFTGDRCQNYVMASFYKAEELYQ
For B1, the “LVEDd and LVEDs, cardiac systolic function, left ventricular remodeling” value (30 μg/kg sc, after 35 consecutive days) was “significantly reduce the LVEDd and LVEDs and strengthen the cardiac systolic function, thereby reversing left ventricular remodeling”, the EF [1] was 44.5 ± 7.85 % and the LVEDd [1] was 0.860 ± 0.04 cm. For the same molecule, the LVEDs [1] was 0.694 ± 0.06 cm, the EF [2] was 45.5 ± 7.96 % and the LVEDd [2] was 0.905 ± 0.04 cm. For the same molecule, the LVEDs [2] was 0.725 ± 0.06 cm, the EF [3] was 44.3 ± 6.95 % and the LVEDd [3] was 0.928 ± 0.05 cm. For the same molecule, the LVEDs [3] was 0.749 ± 0.06 cm, the EF [4] was 44.9±6.09% and the LVEDd [4] was 0.953±0.05 cm. For the same molecule, the LVEDs [4] was 0.767±0.06 cm, the EF [5] was 44.9 ± 7.03% and the LVEDd [5] was 0.953 ± 0.06 cm. It also gave an LVEDs [5] of 0.764 ± 0.07 cm, an EF [6] of 44.7 ± 6.26% and an LVEDd [6] of 0.952 ± 0.05 cm. It also gave an LVEDs [6] of 0.767 ± 0.07 cm, an EF [7] of 46.5 ± 4.01 % and an LVEDd [7] of 0.948 ± 0.04 cm. The LVEDs [7] was 0.755 ± 0.04 cm, the EF [8] was 39.1 ± 7.11 % and the LVEDd [8] was 0.969 ± 0.04 cm. It also gave an LVEDs [8] of 0.808 ± 0.05 cm, an EF [9] of 45.0±5.51% and an LVEDd [9] of 0.973±0.07 cm. The LVEDs [9] was 0.783±0.08 cm, the EF [10] was 42.2±5.48% and the LVEDd [10] was 0.987±0.05 cm. For the same molecule, the LVEDs [10] was 0.807±0.06 cm, the EF [11] was 38.8 ± 3.78 % and the LVEDd [11] was 1.008 ± 0.06 cm. For the same molecule, the LVEDs [11] was 0.843 ± 0.06 cm, the EF [12] was 39.0 ± 6.24 % and the LVEDd [12] was 1.031 ± 0.05 cm. For the same molecule, the LVEDs [12] was 0.859 ± 0.07 cm, the EF [13] was 41.3±4.92% and the LVEDd [13] was 0.989±0.07 cm. The LVEDs [13] was 0.814±0.08 cm, the EF [14] was 35.4±6.78% and the LVEDd [14] was 1.043±0.06 cm. It also gave an LVEDs [14] of 0.887±0.06 cm, an EF [15] of 40.8±4.67% and an LVEDd [15] of 0.976±0.06 cm. It also gave an LVEDs [15] of 0.805±0.07 cm, an EF [16] of 38.9±5.04% and an LVEDd [16] of 1.010±0.06 cm. The LVEDs [16] was 0.842 ± 0.06 cm, the EF [17] was 38.0 ± 3.81 % and the LVEDd [17] was 1.004 ± 0.05 cm. The LVEDs [17] was 0.842 ± 0.05 cm, the EF [18] was 34.6 ± 7.55% and the LVEDd [18] was 1.060 ± 0.05 cm. For the same molecule, the LVEDs [18] was 0.905 ± 0.05 cm, the “Effect of sudden withdrawal on cardiac function” value (day 49, withdrawal subgroup stopped after day 38) was “exerted some effect on the cardiac function of the rats” and the “Cardiac function and cardiac remodeling, overall conclusion” value (long-term sc administration followed by withdrawal through frequency reduction) was “can improve the cardiac function of the rats with myocardial infarction and reduce cardiac remodeling”.
